In PMC9896810, “Crk proteins activate the Rap1 guanine nucleotide exchange factor C3G by segregated adaptor-dependent and -independent mechanisms” (Cell Communication and Signaling : CCS, 2023):
Where a chain is given by its changes, count along the chain named. Blank lines part the entries; values can stand above or below the binder they belong to.

Experiments:
[1] = molecular target: T1, C3G-AAPA (human, UniProt Q13905-1 4-1077, P283A | P284A | L286 | P287 | P289A | P453A | P454A | L456A | P457A | K459A | …); assay: ITC; single-PRM mutant of C3G in the cell titrated with CrkL or CrkL-SH3N, 25 °C, 300 mM NaCl, pH 7.5; SEDPHAT, 1:1 heteroassociation model; N is the competent fraction of C3G; conditions: both partners purified
T1 construct: human C3G isoform a, residues 4-1077; only P3 kept, P1, P2 and P4 mutated to Ala; source: E. coli BL21 (DE3), purified (IMAC, TEV digestion, reversed IMAC, SEC); not shown: His, N-terminal, cleaved; Halo, N-terminal, cleaved
T1 sequence (looked up): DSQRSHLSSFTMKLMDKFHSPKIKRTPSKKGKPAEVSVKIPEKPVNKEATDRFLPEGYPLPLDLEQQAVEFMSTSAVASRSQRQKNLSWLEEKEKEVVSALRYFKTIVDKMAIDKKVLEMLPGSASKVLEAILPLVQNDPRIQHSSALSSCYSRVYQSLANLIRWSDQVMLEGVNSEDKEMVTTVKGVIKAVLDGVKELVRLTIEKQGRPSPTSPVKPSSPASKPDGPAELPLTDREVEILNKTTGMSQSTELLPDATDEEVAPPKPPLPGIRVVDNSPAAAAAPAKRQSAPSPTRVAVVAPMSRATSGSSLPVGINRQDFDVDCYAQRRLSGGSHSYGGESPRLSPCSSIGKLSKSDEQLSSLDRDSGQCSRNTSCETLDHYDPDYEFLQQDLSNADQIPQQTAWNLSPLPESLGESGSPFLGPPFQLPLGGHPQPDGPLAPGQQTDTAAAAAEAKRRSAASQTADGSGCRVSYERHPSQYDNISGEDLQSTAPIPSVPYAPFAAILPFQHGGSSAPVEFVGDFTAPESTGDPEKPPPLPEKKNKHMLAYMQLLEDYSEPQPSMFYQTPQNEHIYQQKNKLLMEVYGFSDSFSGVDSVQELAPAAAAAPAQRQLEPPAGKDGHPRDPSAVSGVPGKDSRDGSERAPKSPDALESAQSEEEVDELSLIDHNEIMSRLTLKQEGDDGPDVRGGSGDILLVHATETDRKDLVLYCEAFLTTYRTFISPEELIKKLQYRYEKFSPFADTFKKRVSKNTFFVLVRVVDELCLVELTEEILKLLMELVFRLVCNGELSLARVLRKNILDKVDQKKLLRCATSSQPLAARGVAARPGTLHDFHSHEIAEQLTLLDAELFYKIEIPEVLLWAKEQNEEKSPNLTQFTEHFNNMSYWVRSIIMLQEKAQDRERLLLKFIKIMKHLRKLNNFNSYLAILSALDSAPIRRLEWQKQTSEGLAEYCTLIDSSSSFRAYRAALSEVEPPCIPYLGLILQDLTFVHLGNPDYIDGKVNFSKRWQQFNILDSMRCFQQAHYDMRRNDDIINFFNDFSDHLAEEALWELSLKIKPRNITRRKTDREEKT

[2] = molecular target: T2, C3G-AAPA-Y554H (human, UniProt Q13905-1 4-1077, P283A | P284A | L286 | P287 | P289A | P453A | P454A | L456A | P457A | K459A | …); assay: as above; conditions: both partners purified
T2 construct: human C3G isoform a, residues 4-1077; source: E. coli BL21 (DE3), purified (IMAC, TEV digestion, reversed IMAC, SEC); not shown: His, N-terminal, cleaved; Halo, N-terminal, cleaved
T2 sequence (looked up): T1 sequence (looked up) with Y551H

Kd [1]: 2100 nM
B1: CrkL (full-length) (natural protein, human, UniProt P46109 1-303, looked up)
chain: MSSARFDSSDRSAWYMGPVSRQEAQTRLQGQRHGMFLVRDSSTCPGDYVLSVSENSRVSHYIINSLPNRRFKIGDQEFDHLPALLEFYKIHYLDTTTLIEPAPRYPSPPMGSVSAPNLPTAEDNLEYVRTLYDFPGNDAEDLPFKKGEILVIIEKPEEQWWSARNKDGRVGMIPVPYVEKLVRSSPHGKHGNRNSNSYGIPEPAHAYAQPQTTTPLPAVSGSPGAAITPLPSTQNGPVFAKAIQKRVPCAYDKTALALEVGDIVKVTRMNINGQWEGEVNGRKGLFPFTHVKIFDPQNPDENE
notes: human CrkL, residues 1-303, in pETEV15b; also called Crk-like protein; source: E. coli BL21 (DE3), purified (IMAC, TEV digestion, SEC); not shown: His, N-terminal, cleaved

stoichiometry N [2]: 0.47
B2: CrkL-SH3N (domain or fragment, human, UniProt P46109 125-182, looked up)
chain: LEYVRTLYDFPGNDAEDLPFKKGEILVIIEKPEEQWWSARNKDGRVGMIPVPYVEKLV
notes: human CrkL, SH3N domain, residues 125-182, in pETEV15b; source: E. coli BL21 (DE3), purified (IMAC, TEV digestion, SEC); not shown: His, N-terminal, cleaved
